Laboratory results taken from patent US20220298218A1 (ANTAG THERAPEUTICS, published 2022).
Read-outs that look alike come from different tables or passages of the source. Where no end group is shown, it is not given here. The star is where a group is joined. C16 diacid = O=C(O)CCCCCCCCCCCCCCC(=O)*

B1: AT450 (peptide)
peptide: EGTFISDYSIAMDKIK(C16 diacid)QQDFVNWLLAQKGKKND-OH
modifications: N-terminus assumed
SMILES: CC[C@H](C)[C@H](NC(=O)[C@H](CO)NC(=O)[C@H](Cc1ccc(O)cc1)NC(=O)[C@H](CC(=O)O)NC(=O)[C@H](CO)NC(=O)[C@@H](NC(=O)[C@H](Cc1ccccc1)NC(=O)[C@@H](NC(=O)CNC(=O)[C@@H](N)CCC(=O)O)[C@@H](C)O)[C@@H](C)CC)C(=O)N[C@@H](C)C(=O)N[C@@H](CCSC)C(=O)N[C@@H](CC(=O)O)C(=O)N[C@@H](CCCCN)C(=O)N[C@H](C(=O)N[C@@H](CCCCNC(=O)CCCCCCCCCCCCCCC(=O)O)C(=O)N[C@@H](CCC(N)=O)C(=O)N[C@@H](CCC(N)=O)C(=O)N[C@@H](CC(=O)O)C(=O)N[C@@H](Cc1ccccc1)C(=O)N[C@H](C(=O)N[C@@H](CC(N)=O)C(=O)N[C@@H](Cc1c[nH]c2ccccc12)C(=O)N[C@@H](CC(C)C)C(=O)N[C@@H](CC(C)C)C(=O)N[C@@H](C)C(=O)N[C@@H](CCC(N)=O)C(=O)N[C@@H](CCCCN)C(=O)NCC(=O)N[C@@H](CCCCN)C(=O)N[C@@H](CCCCN)C(=O)N[C@@H](CC(N)=O)C(=O)N[C@@H](CC(=O)O)C(=O)O)C(C)C)[C@@H](C)CC
B2: AT451 (peptide)
peptide: EGTFISDYSIAMDKIK(C16 diacid)QQDFVNWLLAQKGKKNDWK-OH
modifications: N-terminus assumed
SMILES: CC[C@H](C)[C@H](NC(=O)[C@H](CO)NC(=O)[C@H](Cc1ccc(O)cc1)NC(=O)[C@H](CC(=O)O)NC(=O)[C@H](CO)NC(=O)[C@@H](NC(=O)[C@H](Cc1ccccc1)NC(=O)[C@@H](NC(=O)CNC(=O)[C@@H](N)CCC(=O)O)[C@@H](C)O)[C@@H](C)CC)C(=O)N[C@@H](C)C(=O)N[C@@H](CCSC)C(=O)N[C@@H](CC(=O)O)C(=O)N[C@@H](CCCCN)C(=O)N[C@H](C(=O)N[C@@H](CCCCNC(=O)CCCCCCCCCCCCCCC(=O)O)C(=O)N[C@@H](CCC(N)=O)C(=O)N[C@@H](CCC(N)=O)C(=O)N[C@@H](CC(=O)O)C(=O)N[C@@H](Cc1ccccc1)C(=O)N[C@H](C(=O)N[C@@H](CC(N)=O)C(=O)N[C@@H](Cc1c[nH]c2ccccc12)C(=O)N[C@@H](CC(C)C)C(=O)N[C@@H](CC(C)C)C(=O)N[C@@H](C)C(=O)N[C@@H](CCC(N)=O)C(=O)N[C@@H](CCCCN)C(=O)NCC(=O)N[C@@H](CCCCN)C(=O)N[C@@H](CCCCN)C(=O)N[C@@H](CC(N)=O)C(=O)N[C@@H](CC(=O)O)C(=O)N[C@@H](Cc1c[nH]c2ccccc12)C(=O)N[C@@H](CCCCN)C(=O)O)C(C)C)[C@@H](C)CC
B3: AT449 (peptide)
peptide: EGTFISDYSIAMDKIK(C16 diacid)QQDFVNWLLAQKGKKN-OH
modifications: N-terminus assumed
SMILES: CC[C@H](C)[C@H](NC(=O)[C@H](CO)NC(=O)[C@H](Cc1ccc(O)cc1)NC(=O)[C@H](CC(=O)O)NC(=O)[C@H](CO)NC(=O)[C@@H](NC(=O)[C@H](Cc1ccccc1)NC(=O)[C@@H](NC(=O)CNC(=O)[C@@H](N)CCC(=O)O)[C@@H](C)O)[C@@H](C)CC)C(=O)N[C@@H](C)C(=O)N[C@@H](CCSC)C(=O)N[C@@H](CC(=O)O)C(=O)N[C@@H](CCCCN)C(=O)N[C@H](C(=O)N[C@@H](CCCCNC(=O)CCCCCCCCCCCCCCC(=O)O)C(=O)N[C@@H](CCC(N)=O)C(=O)N[C@@H](CCC(N)=O)C(=O)N[C@@H](CC(=O)O)C(=O)N[C@@H](Cc1ccccc1)C(=O)N[C@H](C(=O)N[C@@H](CC(N)=O)C(=O)N[C@@H](Cc1c[nH]c2ccccc12)C(=O)N[C@@H](CC(C)C)C(=O)N[C@@H](CC(C)C)C(=O)N[C@@H](C)C(=O)N[C@@H](CCC(N)=O)C(=O)N[C@@H](CCCCN)C(=O)NCC(=O)N[C@@H](CCCCN)C(=O)N[C@@H](CCCCN)C(=O)N[C@@H](CC(N)=O)C(=O)O)C(C)C)[C@@H](C)CC
B4: AT361 (peptide)
peptide: EGTFISDYSIAMDKIK(C16 diacid)QQDFVNWLLAQKGKKNDW-OH
modifications: N-terminus assumed
SMILES: CC[C@H](C)[C@H](NC(=O)[C@H](CO)NC(=O)[C@H](Cc1ccc(O)cc1)NC(=O)[C@H](CC(=O)O)NC(=O)[C@H](CO)NC(=O)[C@@H](NC(=O)[C@H](Cc1ccccc1)NC(=O)[C@@H](NC(=O)CNC(=O)[C@@H](N)CCC(=O)O)[C@@H](C)O)[C@@H](C)CC)C(=O)N[C@@H](C)C(=O)N[C@@H](CCSC)C(=O)N[C@@H](CC(=O)O)C(=O)N[C@@H](CCCCN)C(=O)N[C@H](C(=O)N[C@@H](CCCCNC(=O)CCCCCCCCCCCCCCC(=O)O)C(=O)N[C@@H](CCC(N)=O)C(=O)N[C@@H](CCC(N)=O)C(=O)N[C@@H](CC(=O)O)C(=O)N[C@@H](Cc1ccccc1)C(=O)N[C@H](C(=O)N[C@@H](CC(N)=O)C(=O)N[C@@H](Cc1c[nH]c2ccccc12)C(=O)N[C@@H](CC(C)C)C(=O)N[C@@H](CC(C)C)C(=O)N[C@@H](C)C(=O)N[C@@H](CCC(N)=O)C(=O)N[C@@H](CCCCN)C(=O)NCC(=O)N[C@@H](CCCCN)C(=O)N[C@@H](CCCCN)C(=O)N[C@@H](CC(N)=O)C(=O)N[C@@H](CC(=O)O)C(=O)N[C@@H](Cc1c[nH]c2ccccc12)C(=O)O)C(C)C)[C@@H](C)CC
B5: AT452 (peptide)
peptide: EGTFISDYSIAMDKIK(C16 diacid)QQDFVNWLLAQKGKKNDWKH-OH
modifications: N-terminus assumed
SMILES: CC[C@H](C)[C@H](NC(=O)[C@H](CO)NC(=O)[C@H](Cc1ccc(O)cc1)NC(=O)[C@H](CC(=O)O)NC(=O)[C@H](CO)NC(=O)[C@@H](NC(=O)[C@H](Cc1ccccc1)NC(=O)[C@@H](NC(=O)CNC(=O)[C@@H](N)CCC(=O)O)[C@@H](C)O)[C@@H](C)CC)C(=O)N[C@@H](C)C(=O)N[C@@H](CCSC)C(=O)N[C@@H](CC(=O)O)C(=O)N[C@@H](CCCCN)C(=O)N[C@H](C(=O)N[C@@H](CCCCNC(=O)CCCCCCCCCCCCCCC(=O)O)C(=O)N[C@@H](CCC(N)=O)C(=O)N[C@@H](CCC(N)=O)C(=O)N[C@@H](CC(=O)O)C(=O)N[C@@H](Cc1ccccc1)C(=O)N[C@H](C(=O)N[C@@H](CC(N)=O)C(=O)N[C@@H](Cc1c[nH]c2ccccc12)C(=O)N[C@@H](CC(C)C)C(=O)N[C@@H](CC(C)C)C(=O)N[C@@H](C)C(=O)N[C@@H](CCC(N)=O)C(=O)N[C@@H](CCCCN)C(=O)NCC(=O)N[C@@H](CCCCN)C(=O)N[C@@H](CCCCN)C(=O)N[C@@H](CC(N)=O)C(=O)N[C@@H](CC(=O)O)C(=O)N[C@@H](Cc1c[nH]c2ccccc12)C(=O)N[C@@H](CCCCN)C(=O)N[C@@H](Cc1c[nH]cn1)C(=O)O)C(C)C)[C@@H](C)CC
B6: AT362 (peptide)
peptide: EGTFISDYSIAMDKIK(C16 diacid)QQDFVNWLLAQKGKKNDWKHN-OH
B7: AT360 (peptide)
peptide: EGTFISDYSIAMDKIK(C16 diacid)QQDFVNWLLAQKGKK-OH
modifications: N-terminus assumed
SMILES: CC[C@H](C)[C@H](NC(=O)[C@H](CO)NC(=O)[C@H](Cc1ccc(O)cc1)NC(=O)[C@H](CC(=O)O)NC(=O)[C@H](CO)NC(=O)[C@@H](NC(=O)[C@H](Cc1ccccc1)NC(=O)[C@@H](NC(=O)CNC(=O)[C@@H](N)CCC(=O)O)[C@@H](C)O)[C@@H](C)CC)C(=O)N[C@@H](C)C(=O)N[C@@H](CCSC)C(=O)N[C@@H](CC(=O)O)C(=O)N[C@@H](CCCCN)C(=O)N[C@H](C(=O)N[C@@H](CCCCNC(=O)CCCCCCCCCCCCCCC(=O)O)C(=O)N[C@@H](CCC(N)=O)C(=O)N[C@@H](CCC(N)=O)C(=O)N[C@@H](CC(=O)O)C(=O)N[C@@H](Cc1ccccc1)C(=O)N[C@H](C(=O)N[C@@H](CC(N)=O)C(=O)N[C@@H](Cc1c[nH]c2ccccc12)C(=O)N[C@@H](CC(C)C)C(=O)N[C@@H](CC(C)C)C(=O)N[C@@H](C)C(=O)N[C@@H](CCC(N)=O)C(=O)N[C@@H](CCCCN)C(=O)NCC(=O)N[C@@H](CCCCN)C(=O)N[C@@H](CCCCN)C(=O)O)C(C)C)[C@@H](C)CC

How the values were obtained:
[1] = target: T1, human GIP receptor (human, UniProt P48546 22-466); assay: cell-based or functional assay
T1 sequence (looked up): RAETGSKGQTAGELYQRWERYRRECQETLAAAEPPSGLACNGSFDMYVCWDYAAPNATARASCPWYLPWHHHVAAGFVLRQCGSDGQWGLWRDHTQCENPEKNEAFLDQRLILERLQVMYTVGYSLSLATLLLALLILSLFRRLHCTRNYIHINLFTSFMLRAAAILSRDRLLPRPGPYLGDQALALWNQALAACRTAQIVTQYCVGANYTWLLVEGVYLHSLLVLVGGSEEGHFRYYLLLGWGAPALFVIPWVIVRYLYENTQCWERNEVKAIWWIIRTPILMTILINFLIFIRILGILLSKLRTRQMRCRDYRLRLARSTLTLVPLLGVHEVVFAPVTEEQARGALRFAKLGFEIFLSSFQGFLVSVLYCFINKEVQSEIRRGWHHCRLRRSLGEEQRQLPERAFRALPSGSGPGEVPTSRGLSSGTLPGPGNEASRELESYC

[2] = target: T1, human GIP receptor; assay: cell-based or functional assay; remark: listed apart in the source

Binder | cAMP agonism Emax [1] | cAMP antagonism [1] [nM] | cAMP antagonism % inhib [1] [%] | cAMP antagonism log [1] [log M] | cAMP agonism % Emax [2] [%] | cAMP antagonism [2] [nM] | cAMP antagonism % inhib [2] [%] | cAMP antagonism pIC50 [2]
B1 | 5.8 | 3 | 57 | -8.5 | 0 | 2.29 | 97 | 8.6
B2 | 9.2 | 8 | 75 | -8.1 | 0 | 2.33 | 99 | 8.6
B3 | 8.6 | 4 | 95 | -8.4 | 0 | 5.84 | 89 | 8.2
B4 | 5 | 2 | 100 | -8.8 | 0 | 3.76 | 99 | 8.4
B5 | 7.2 | 5 | 75 | -8.3 | 0 | 7.59 | 97 | 8.1
B6 | 7 | 5 | 86 | -8.3 | 0 | 14.7 | 94 | 7.8
B7 | 20 | 86 | 85 | -7.1 | 0 | 12.6 | 96 | 7.9
